B1: Virulence protein F (Agrobacterium tumefaciens (strain 15955)), P15597 (parent)
chain: MRNSSLRDASGSNDAQVPHKTELLNLPDHVLTEVAKRLATNNPVESAENIANFSKSHRFTRDAVRTEPLEKFSSRLKILSRNAKLLSHAVRHAATLPDGEQLSEAQLSQMRSEVATRPVLGVAYTHQDGQPEERLSGNHLDHKINNIPNLVFNVAEPIMFNEISALEVMAEVRPIARSIKTAHDDARAELMSADRPRSTRGL

This note sets out measurements from IntAct's records for PubMed 11250154.

In the first experiment the parent is B1. Conditions: with skp1a_arath SKP1A.
For MRNSSLRDASGSNDAQVPHKTELLNAADHVLTEVAKRLATNNPVESAENIANFSKSHRFTRDAVRTEPLEKFSSRLKILSRNAKLLSHAVRHAATLPDGEQLSEAQLSQMRSEVATRPVLGVAYTHQDGQPEERLSGNHLDHKINNIPNLVFNVAEPIMFNEISALEVMAEVRPIARSIKTAHDDARAELMSADRPRSTRGL [L26A;P27A], the “effect of a mutation on the interaction” value is reported as “decreasing interaction strength”.

Variants of B1 are the subject of a further experiment. Conditions: with skp1b_arath SKP1B.
As for MRNSSLRDASGSNDAQVPHKTELLNAADHVLTEVAKRLATNNPVESAENIANFSKSHRFTRDAVRTEPLEKFSSRLKILSRNAKLLSHAVRHAATLPDGEQLSEAQLSQMRSEVATRPVLGVAYTHQDGQPEERLSGNHLDHKINNIPNLVFNVAEPIMFNEISALEVMAEVRPIARSIKTAHDDARAELMSADRPRSTRGL [L26A;P27A], the “effect of a mutation on the interaction” value is recorded as “decreasing interaction strength”.
